This series concerns the molecule itself. Description: cryo-EM structure; apo TRPV3 T96A in PMAL-C8 amphipol, 50 mM Tris pH 8, 150 mM NaCl; Titan Krios 300 keV; C4 symmetry, ~3.4 Å.

B1: full-length human TRPV3 containing the point mutation T96A (natural protein, UniProt Q8NET8-1 1-790, looked up)
chain: MKAHPKEMVPLMGKRVAAPSGNPAILPEKRPAEITPTKKSAHFFLEIEGFEPNPTVAKTSPPVFSKPMDSNIRQCISGNCDDMDSPQSPQDDVTEAPSNPNSPSAQLAKEEQRRKKRRLKKRIFAAVSEGCVEELVELLVELQELCRRRHDEDVPDFLMHKLTASDTGKTCLMKALLNINPNTKEIVRILLAFAEENDILGRFINAEYTEEAYEGQTALNIAIERRQGDIAALLIAAGADVNAHAKGAFFNPKYQHEGFYFGETPLALAACTNQPEIVQLLMEHEQTDITSRDSRGNNILHALVTVAEDFKTQNDFVKRMYDMILLRSGNWELETTRNNDGLTPLQLAAKMGKAEILKYILSREIKEKRLRSLSRKFTDWAYGPVSSSLYDLTNVDTTTDNSVLEITVYNTNIDNRHEMLTLEPLHTLLHMKWKKFAKHMFFLSFCFYFFYNITLTLVSYYRPREEEAIPHPLALTHKMGWLQLLGRMFVLIWAMCISVKEGIAIFLLRPSDLQSILSDAWFHFVFFIQAVLVILSVFLYLFAYKEYLACLVLAMALGWANMLYYTRGFQSMGMYSVMIQKVILHDVLKFLFVYIVFLLGFGVALASLIEKCPKDNKDCSSYGSFSDAVLELFKLTIGLGDLNIQQNSKYPILFLFLLITYVILTFVLLLNMLIALMGETVENVSKESERIWRLQRARTILEFEKMLPEWLRSRFRMGELCKVAEDDFRLCLRINEVKWTEWKTHVSFLNEDPGPVRRTDFNKIQDSSRNNSKTTLNAFEEVEEFPETSV
notes: Transient receptor potential vanilloid channel 3 (TRPV3), human, full length, with the stabilising point mutation T96A; Homotetramer; Residues 1-117, which include T96A, were not resolved in the reconstructions; No removal of the FLAG tag is described; also called hTRPV3; TRPV3_(T96A); source: Sf9 insect cells (baculovirus), purified (anti-FLAG resin, size exclusion), reconstituted in PMAL-C8 …
As for B1, the “stoichiometry N” value worked out at 4.

For orientation: stoichiometry N means a count of units in the complex or per binding partner.

The values above are taken from publication PMC6235889, “Conformational ensemble of the human TRPV3 ion channel” (Nature Communications, 2018).
